Measured values: the nanobody polyreactivity screen of Harvey et al. (2022)

Test: yeast display, Sf9 membrane polyspecificity reagent, FACS + sequencing; frameworks hold sequencing errors
How it was run: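 Polyreactivity labels are assigned by the sorting gate from which each nanobody was recovered. The gates were low and high (top ~1%), set on anti-HA fluorescence for expression and streptavidin fluorescence for reagent binding. Before sorting, galactose-induced (36–48 hours) yeast display cells were stained for 1 hour at 4 °C with 10% biotinylated, detergent-solubilized Sf9 membrane reagent.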

Row | Sequence | polyreactivity (PSR sort gate)
1 | QVQLVESGGGLVQAGGSLRLSCGASGRIFAYYAMGWYRQAPGKERELVADISSGGNTYYADSVKGRFTISRDNAKNTVYLQMNSLKPEDTAVYYCAADIAWYTHDHRIFDYWGQGTQVTVSS | low polyreactivity
2 | QVQLVESGGGLVQAGGSLRLSCGASGRIFGINAMGWYRQAPGKERELVAAITKSGGTTYYADSVKGRFTISRDNAKNTVYLQMNTLKPEDTAVYYCAAKGSVVYQLRYDYWGQGTQVTVSS | high polyreactivity
3 | QVQLVESGGGLVQAGGSLRLSCGASGRIFYYYVMGWSRQGPGKERELVAVIDWSGGSTYYADSVKGRFTISRDNAKNTVYLQMNSLKPEDTAVYYCAKVWLKFSLAYEDYVYWGQGTQVTVSS | low polyreactivity
4 | QVQLVESGGGLVQAGGSLRLSCGASGSIFNKYAIGWYRQAPGKERELVAAISVSGTRTYYADSVKGRFTISRDNAKNTCYLQMNSLKPEDTAVYYCAATRLDSTGSMYYYWGQGTQVTVSS | high polyreactivity
5 | QVQLVESGGGLVQAGGSLRLSCGASGSIFRLNAMGWYRQAPGKERELVARIDSSGSTNYADSVKGRFTISRDNAKNTVYLQMNSLKPEDTAVYYCAAVLVLIVGMDSWGQGTQVTVSS | low polyreactivity
6 | QVQLVESGGGLVQAGGSLRLSCGASGSIFYGYAMGWYRQAPGKERELVASITYSGGSTYYADSVKGRFTISRDNAKNTVYLQMNSLKPEDTTVYYCAVIGYHYSAISPASQTRQGYDYWGQGTQVTVSS | low polyreactivity
7 | QVQLVESGGGLVQAGGSLRLSCGASGSIFYQNVMGWYRQAPGKERELVAAISSSGDSTYYADSVKGRFTISRDNAKNTVYLQMNSLKPEDTAVYYCAAEPEYVSGPYDYWGQGTQVTVSS | low polyreactivity
8 | QVQLVESGGGLVQAGGSLRLSCGAYGLTFTYNTMGWYRPAPGKERELVAAITSSGGRTYYADSVKGRFTISRDHAKNTVYFQMNSLKPEDTAVYYCAKTKYYPKRDYYWGQGTLVTVSS | high polyreactivity
9 | QVQLVESGGGLVQAGGSLRLSCHASGYTFYVYALGWYRQPPGKERELVAAIGGGSTNYADSVKGRFTISRDNAKNTVYLQMNSLKPEDTAVYYCAARRYYKFYYWGQGTQVTVSS | high polyreactivity
10 | QVQLVESGGGLVQAGGSLRLSCHATGFTFTIYAMGWYRQAPGKERELVATISGRAGRTYYADSVKGRFTISRDIAKNTVYLQMNSLKPEDTAVYYCNAGQWRYPGLYYYWGKGTQVTVSS | high polyreactivity
11 | QVQLVESGGGLVQAGGSLRLSCPASGFIIRLYVMGWYRQAPGKERELVAAISSGGRTYYADSVKGRFTISRDNAKNTVYLQMNSLKPEDTAVYYCAAYVRGWGCDDFWGQGSQVTVSS | high polyreactivity
12 | QVQLVESGGGLVQAGGSLRLSCPASGFNFPAYTMGSYRQAPGKERELVAAITSSGGNTYYADSVKGRFTISRDNAKNTVYFQMNSLKPEDTAVYYCATVSVRWPSNDHVRYDYWGQGTQVTVSS | low polyreactivity
13 | QVQLVESGGGLVQAGGSLRLSCPASGFTFHHYVMGWYRPAPGKEMEFVASIRWRGGSTYYADSVKGRFTISRDNAKTTVYLQMNSLKPEDTAVYYSNADPYVYSSWQYGYWGQGTQVTVSS | high polyreactivity
14 | QVQLVESGGGLVQAGGSLRLSCPASGITFKGYTMGWYRQAPGKERELVATISRGGRTYADSVKGRFTISRDNAKKTFYLQMNSLKPEDTSVYYCAADKYWAQNDYWGQGTQVTVSS | low polyreactivity
15 | QVQLVESGGGLVQAGGSLRLSCPASGRIFYPYPKGWYRQAPGKERELVATITRTGSTYYADSVKGRFTITRDNAKNTVYVQMNSLKPEDPAVYYCAVQRSYVGPRQYNYWGQGTQVTVSS | high polyreactivity
16 | QVQLVESGGGLVQAGGSLRLSCPASGRTFKWYAMGWYRQAPGKERELVAAISTGGRTHYADSVKGRFTISRDNSKNTVYLQMNSLKPEDTAVYYCNAADDLADPERTENHKRDYWGQGTQVTVSS | high polyreactivity
17 | QVQLVESGGGLVQAGGSLRLSCPASGRTFNWNAMGWYRKAPGKERELVADISIRGGSTNYADSVKGRFTISRDNAKNTVYLQMNSLKPEDTAVYYCAAEYYDSGNDYWGQGTQVTVSS | low polyreactivity
18 | QVQLVESGGGLVQAGGSLRLSCPASGRTFWWYAMGWYRQAPGKEREIVAAISQRGTSTYYADSVKGRFTISRDNAKNTVYLQMNSLNPEDTAVYYCAADRPYYPLKYDYWGQGTQVTVSS | high polyreactivity
19 | QVQLVESGGGLVQAGGSLRLSCPASGRTIRPYAMGWYRQAPGKERELVAAITGSGTSTYYADSVKGRFTISRDNAKNTVYLQMNSLKPEDTAVYYCAVAIGYVYKTYYYWGQGTQVTVSS | high polyreactivity
20 | QVQLVESGGGLVQAGGSLRLSCPASGSIFKYYAMGWYRQAPGKDRELVAPITDRGSSTYYADSVKGRFTISRDNAKNTVYLQMNSLKPEDTAVYYCAAVYYAFYRFGYWGQGTQVTVSS | high polyreactivity
21 | QVQLVESGGGLVQAGGSLRLSCPASGSTFLFNAMGWYRQAPGKERELVAAIRSDGSTDYADSVKGRFTISRDNAKTTVYLQMNSLKPEDTAVYYCAAESITGYVSDFDYWGQGTQVTVSS | low polyreactivity
22 | QVQLVESGGGLVQAGGSLRLSCPASGSTFRYYAMGWYRQAPGKERELVAAISYRGGSTKYADSVKGRFTISRDNAKNTVYLQMNSLKPEDTAVYYCNTAPWWRTSSDYEYWGQGTQVTVSS | high polyreactivity

Row | Sequence | polyreactivity (PSR sort gate)
23 | QVQLVESGGGLVQAGGSLRLSCPASGSTFVLNAMGWYSQAPGKERELVAAITGSGSTNYADSVKGRFTISRDNAKNTVYLQMNRLKPEDTAVYYCATAAVYPIPFGYWGQGTQVTVSS | low polyreactivity
24 | QVQLVESGGGLVQAGGSLRLSCPASGSTFYYYAMGWYRQAPGKERELVASISDDGSTNYADSVKGRFTISRDNAKNTVYLQMNSLKPEDTAVYYCAAVWWHQFGSAWYQMGYWGQGTQVTVSS | low polyreactivity
25 | QVQLVESGGGLVQAGGSLRLSCPASGTIFYVNAMGLYRQEPGKETEFVAAITGGASTNFADSVKGRFTSSRDNAKNTVYLQMNSLKPEDTAVYYCAVDPVGHATRVWTYHYDYWGQGTQVTVSS | low polyreactivity
26 | QVQLVESGGGLVQAGGSLRLSCPASGTTIVSNAMGWYRQAPGKERDLVAAISSSGGRTSYADSVKGRFTISRDNAKNTVSLQMNSLKPEDTAVYYCAADHPPGDTYEYWGQGTQVSVSS | low polyreactivity
27 | QVQLVESGGGLVQAGGSLRLSCPASGYTFYKNAMGWYRQPPGKERELVAAISYSGGRTYYADSVKGRFTISRDNAKNTVYLQMNSLKPEDTAVYYCAKATRVITDDGSYGYWGQGSQVTVSS | high polyreactivity
28 | QVQLVESGGGLVQAGGSLRLSCPASVLILVYYAMGWYRQAPGKERELVAAINPGGSTKYADSVKGRFTISRDNAKNTVYLQMNSLKQEDTEVYYCNADGEGADSDYDYWGQGTKVTVSS | low polyreactivity
29 | QVQLVESGGGLVQAGGSLRLSCPAYGYTILPNAMGWYRQAPGKEREFVAAISYSGGRTYYADSVKGRFTISRDNAKNTVYLQMNSLKPEDTAVYYCATELYGYRYDYWGQGTQVTVSS | low polyreactivity
30 | QVQLVESGGGLVQAGGSLRLSCPPSGTFSFYAMGWYRQAPGKERELVATIRSGGRTYYADSVKGRFTISRDNAKNTVYLQMNSLKPEDTAVYYCAAASTKLSGSDYDYWGQGTQVTVSS | high polyreactivity
31 | QVQLVESGGGLVQAGGSLRLSCSASGFIFGPNAMGWYRQAPGKEMELVAAISWMGSSTYYADSVKGRFTISRDNANNTVYLQMNSLKPEDTAVYYCAADSSERRLLDFDYWGQGTNVTVSS | low polyreactivity
32 | QVQLVESGGGLVQAGGSLRLSCSASGFIFPRYTMGWYRQAPGKERELVAGITLRGGSTYYADSVKGRFTISRDNAKNTVYLQMNSLKPDDTAVYYCARGISRGRSFGIGYDYWGQGTQVTVSS | low polyreactivity
33 | QVQLVESGGGLVQAGGSLRLSCSASGFTFRYYTMGWYRQAPGKERELVAAISRSSGSRTYYADSVKGRFTISRDNAKNTVYLQMNSLKPEDTAVYYCNADPAYQFDYWGQGTQVTVSS | high polyreactivity
34 | QVQLVESGGGLVQAGGSLRLSCSASGFTFYRNAMGWYRQAPGKERELVASISRSGGSTYYADSVKGRFTISRDNAKNTVYLQMNSLKPEDTAVYYCAADLCWIYPHKYYYWGQGTQVTVSS | high polyreactivity
35 | QVQLVESGGGLVQAGGSLRLSCSASGGTFEFYTMGWYRQAPGKERELVAAISWSGSSTYYADSVKGRFTISRDNAKNTVYLQMNSLKPEDTAVYYCAAYPRPYIGYTDGYVWYEFDYWGQGTQVTVSS | low polyreactivity
36 | QVQLVESGGGLVQAGGSLRLSCSASGIIFSTYAKGWYRQAPGKERELVAAITSTGSTNYADSVKGRFTISRDNAKNTVYLQLNSLKPEDTAVYYCAARYAGPSPTDTGHDYWGQGTQVTVSS | low polyreactivity
37 | QVQLVESGGGLVQAGGSLRLSCSASGLTFKENAMGWYRQAPGTERELVAAISKGGGSTFYADSVKGRFTISRDNAKNTVYLQMNTLKPEDTAVYYCNADVGYRGGEEDYWGQGTQVTVSS | low polyreactivity
38 | QVQLVESGGGLVQAGGSLRLSCSASGLTFNFNAMGWYRQAPGKERELVAAISYRAGSTYYADSVKGRFTISRDNAKNTVYLQMNSLKPEDTAVYYCAADGYYYVKSGTYWSDYWGQGTQVTVSS | low polyreactivity
39 | QVQLVESGGGLVQAGGSLRLSCSASGNTIRYYALGWYRQAPGKERELVATITSGGRTYYADSVKGRFTISRDNAKNTVYLQMNSLKPEDTAVYYCAAGSRSDARRYYYWGQGTQVTVSS | low polyreactivity
40 | QVQLVESGGGLVQAGGSLRLSCSASGRIFGRYAMGWYRQAPGKERELVAAISASGGSTYYADSVKGRFTISRDNAKNTVYLQMNSLKPEDTAVYYCAADAPAEYYWGQGTQVSVSS | low polyreactivity
41 | QVQLVESGGGLVQAGGSLRLSCSASGRIFRFYGMGWYRQAPGKDRELVAAISSRGGSTYYADSVKGRFTISRDNAKNTVYLQMNSLKPEDSGVYYCAASGAFWYPYDYWGQGTQVTVSS | high polyreactivity
42 | QVQLVESGGGLVQAGGSLRLSCSASGRIISFYVMGWYRQAPGKDRELVAAISLSGGSTYYADSVKGRFTISRDNAKNTVYLQMNSLKPEDTAVYYCAADQTLVGLPYNYWGQGTQLTVSS | high polyreactivity
43 | QVQLVESGGGLVQAGGSLRLSCSASGRNFKYYAMGWYRKAPGKERELVAAITSTGGSTYYADSVKGRFTISRDNGKNTVYLQLNSLKPEDTAVYYCNRDTQYRDRSDNHWGQGTQVTVSS | high polyreactivity
